Experimental data taken from patent US20210238310A1.

Experiments:
[1] = target: FcγRIIIa, on Jurkat effector cells (UniProt P08637); test: cell-based or functional assay
[2] = target: human FcγRIIa-H variant (Histidine at amino acid 131), on Jurkat effector cells (human) (UniProt P12318); test: cell-based or functional assay
human FcγRIIa-H variant (Histidine at amino acid 131), on Jurkat effector cells (human), sequence (P12318 34-317, change not shown): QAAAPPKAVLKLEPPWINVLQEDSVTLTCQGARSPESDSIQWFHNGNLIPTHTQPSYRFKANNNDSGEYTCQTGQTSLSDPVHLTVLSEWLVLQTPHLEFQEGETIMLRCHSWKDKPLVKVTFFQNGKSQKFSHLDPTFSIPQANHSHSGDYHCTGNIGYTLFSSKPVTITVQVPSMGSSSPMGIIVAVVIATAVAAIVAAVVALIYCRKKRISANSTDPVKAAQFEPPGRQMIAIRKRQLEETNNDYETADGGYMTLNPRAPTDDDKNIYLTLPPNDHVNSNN

FcγRIIIa, on Jurkat effector cells, sequence (P08637 17-254 limits assumed): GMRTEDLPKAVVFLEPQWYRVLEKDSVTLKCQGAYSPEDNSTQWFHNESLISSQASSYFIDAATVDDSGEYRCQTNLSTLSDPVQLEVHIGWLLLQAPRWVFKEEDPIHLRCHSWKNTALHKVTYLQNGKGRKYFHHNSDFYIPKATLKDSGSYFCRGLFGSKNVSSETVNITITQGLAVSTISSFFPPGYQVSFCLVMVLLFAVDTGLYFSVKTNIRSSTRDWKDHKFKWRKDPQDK

EC50 (nM), Mean; FcγRIIIa signaling in an ADCC reporter assay (luciferase, HEK-PD-L1 target cells) [1] | EC50 (nM), Mean; FcγRIIIa signaling in an ADCC reporter assay (luciferase, Raji target cells) [1] | EC50 (nM), Mean; FcγRIIa signaling in an ADCP reporter assay (luciferase, Raji target cells) [2] | Substance
0.049 nM |  |  | avelumab monoclonal antibody, fucosylated
 | 0.08 nM | 7.1 nM | obinutuzumab monoclonal antibody, fucosylated
